Experimental findings from US20040013649A1, “Cancer vaccines and methods of using the same” (Inex Pharmaceuticals Corporation, priority 2002, published 2004) are described below.

The subject of assay [1] is E.G7-OVA. The assay can be described thus: therapeutic efficacy of OVA vaccination, established E.G7-OVA tumors. Type of assay: in vivo, B6 mice. Particulars: treatment q4d×4 once tumors had reached ~250 mm3. From the text: Currently, the clinical objective is to generate a therapeutic host immune responses that can reduce the progression of established cancers. To evaluate the effect of vaccination on therapeutic efficacy in the E.G7-OVA model, B6 mice were implanted with E.G7-OVA cells and were subsequently treated with OVA, OVA +ODN 1 or OVA +LNA/ODN 1 on a q4d×4 schedule once the tumors had reached ˜250 mm3.

Assay [2] has as its system E.G7-OVA. The assay can be described thus: prophylactic efficacy of OVA / OVA257-264 vaccination, E.G7-OVA model. Type of assay: in vivo, C57/BL6 mice. More on the design: anti-tumor activity / antigen specific efficacy / adjuvant activity following prophylactic vaccination: dose or concentration left out as unconfirmed. Here is the method: Vaccinations. B6 mice were vaccinated subcutaneously (SC) with […] per injection. Dosing schedules were either q7dx2 or q4dx4 and are indicated in the individual figure legends. CFA mixtures were very viscous and had to be given with a larger gauge syringe. For humoral studies, a prime (day 0) and boost (day 14) strategy was used and blood samples were collected at various times by tail nicking.
Efficacy studies. E.G7-OVA or EL-4 thymoma cell lines were used throughout the study. These cells were cultured in vitro according to established methods. For tumor studies, 2.5×106 E.G7-OVA cells were injected subcutaneously in […] of PBS containing 1% FCS. Tumor measurements were made by repeated perpendicular measurements of tumor dimensions and using the formula: […]
Full-length OVA and the immunodominant cytotoxic T lymphocyte (CTL) peptide epitope (OVA257-264) were used to evaluate cell mediated immune responses and the prophylactic and therapeutic efficacy of OVA vaccination against the E.G7-OVA transfected cell line, using LNA both as an adjuvant and as the basis for a cancer vaccine formulation. LNA formulations for this experiment were prepared using DSPC:Chol:DODAP:PEGCer14 at a ration of 25:45:20:10
The anti-tumor activity of OVA and OVA257-264 were examined against the murine thymoma cell line, E.G7-OVA, implanted subcutaneously (SC) in C57/BL6 mice. […] Given the activity observed with the protein or peptide alone, this dose and schedule represents a useful model to evaluate adjuvants designed to boost the immune response against OVA and/or OVA257-264.
To examine LNA formulations as adjuvants, the impact of three variables were evaluated on vaccination and efficacy in the prophylactic E.G7-OVA model: (1) the activity of free vs. encapsulated ODN 1, (2) phosphodiester (PO) vs phosphorothioate (PS) ODN, and (3) full-length OVA protein vs single-epitope peptide OVA257-264 (FIGS. 30A and B). In this set of studies, free and encapsulated ODN 1 was simply mixed with antigen and administered SC near the nape of the neck. ODN and antigen doses in these studies were […], respectively.

B1: OVA: Hen egg albumin (ovalbumin), full-length protein, model tumor-associated antigen (protein, UniProt P01012 1-386, looked up)
chain: MGSIGAASMEFCFDVFKELKVHHANENIFYCPIAIMSALAMVYLGAKDSTRTQINKVVRFDKLPGFGDSIEAQCGTSVNVHSSLRDILNQITKPNDVYSFSLASRLYAEERYPILPEYLQCVKELYRGGLEPINFQTAADQARELINSWVESQTNGIIRNVLQPSSVDSQTAMVLVNAIVFKGLWEKAFKDEDTQAMPFRVTEQESKPVQMMYQIGLFRVASMASEKMKILELPFASGTMSMLVLLPDEVSGLEQLESIINFEKLTEWTSSNVMEERKIKVYLPRMKMEEKYNLTSVLMAMGITDVFSSSANLSGISSAESLKISQAVHAAHAEINEAGREVVGSAEAGVDAASVSEEFRADHPFLFCIKHIATNAVLFFGRCVSP
modifications: full-length
notes: Hen egg albumin (ovalbumin), full-length protein, model tumor-associated antigen
In the case of B1, the “tumor growth of established tumors” value in assay [1] was “no delay in tumor growth”. Also, the anti-tumor activity entry in assay [2] (antigen alone, once weekly vaccination, 2 injections) is given as “Anti-tumor activity was observed”. The “antigen specific efficacy / adjuvant activity following prophylactic vaccination” value in assay [2] (free or encapsulated ODN 1 mixed with OVA or OVA257-264, SC) is “dramatically improved immune responses and efficacy”.
